The results in this text go back to patent publication US5708158, “Nuclear factors and binding assays” (Tularik Inc., dated 1998).

The assay has as its target T1, NFATc-589 (translated in vitro) (human).
T1 chain: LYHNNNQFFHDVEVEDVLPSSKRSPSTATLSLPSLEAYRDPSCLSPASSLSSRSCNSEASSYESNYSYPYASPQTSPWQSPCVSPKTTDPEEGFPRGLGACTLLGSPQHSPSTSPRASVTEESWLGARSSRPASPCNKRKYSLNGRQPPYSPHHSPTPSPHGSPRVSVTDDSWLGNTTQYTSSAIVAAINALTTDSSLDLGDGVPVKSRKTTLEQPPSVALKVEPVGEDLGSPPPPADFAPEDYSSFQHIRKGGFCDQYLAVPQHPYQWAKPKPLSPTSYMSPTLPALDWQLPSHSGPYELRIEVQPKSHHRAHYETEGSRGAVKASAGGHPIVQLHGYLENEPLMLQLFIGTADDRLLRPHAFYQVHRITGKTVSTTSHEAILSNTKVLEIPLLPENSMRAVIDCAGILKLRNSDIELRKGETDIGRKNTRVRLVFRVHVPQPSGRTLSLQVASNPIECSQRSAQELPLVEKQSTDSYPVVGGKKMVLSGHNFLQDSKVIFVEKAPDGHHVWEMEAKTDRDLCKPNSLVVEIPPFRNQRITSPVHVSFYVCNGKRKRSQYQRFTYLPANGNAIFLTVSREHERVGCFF
The assay can be described thus: gel mobility shift assay with two co-translated NFATc versions of different size; test for dimers on DNA. From the text: After determining that NFAT rel domains were monomers in solution, we then considered the possibility that NFAT proteins might form dimers when bound to DNA. To address this question we carried out gel mobility shift assays with two different sized versions of NFATc translated in vitro (Hope and Struhl 1987). The shorter version contains the rel similarity region and a small amount of flanking residues and is referred to as NFATc-309. This construct is equivalent to the one that was expressed in *E. coli*. The larger version, NFATc-589, contains additional N-terminal sequences. When expressed individually in a rabbit reticulocyte lysate both versions of NFATc were active and produced protein-DNA complexes with different mobilities. When the two different NFATc proteins were mixed by co-translation the same protein-DNA complexes were apparent and no intermediate species was detectable, as would be expected if the proteins were forming dimers on the DNA.
Electrophoretic mobility shift assays were performed with the indicated amounts of proteins in 50 mM KCl, 25 mM HEPES, 0.05 mM EDTA, 5% glycerol, 1 mM DTT with […] of poly(dI-dC) and 100 ng of BSA. The binding reactions and electrophoresis were carried out at room temperature. The samples were run on a 5% polyacrylamide, 0.5× TBE gel at 200 V.

B1: NFATc-309 (translated in vitro) (other)
chain: MSPTLPALDWQLPSHSGPYELRIEVQPKSHHRAHYETEGSRGAVKASAGGHPIVQLHGYLENEPLMLQLFIGTADDRLLRPHAFYQVHRITGKTVSTTSHEAILSNTKVLEIPLLPENSMRAVIDCAGILKLRNSDIELRKGETDIGRKNTRVRLVFRVHVPQPSGRTLSLQVASNPIECSQRSAQELPLVEKQSTDSYPVVGGKKMVLSGHNFLQDSKVIFVEKAPDGHHVWEMEAKTDRDLCKPNSLVVEIPPFRNQRITSPVHVSFYVCNGKRKRSQYQRFTYLPANGNAIFLTVSREHERVGCFF
Take B1: the binding result is recorded as “no binding”.
